The target of assay [1] is F-actin assembled from purified rabbit skeletal muscle actin (rabbit) (UniProt P68135). Briefly: co-sedimentation.
For assay [2], the target named is IQGAP1 (native, from bovine adrenal) (bovine (endogenous in adrenal)). Briefly: AUC.
Assay [3] shares this target. Briefly: co-purification with quantitative immunoblot. A general note: A western blot detects proteins with antibodies after separation by electrophoresis.
For assay [4] the target is unchanged. As to the kind of experiment: co-purification with quantitative immunoblot. The source holds these as a separate data set.

Values joined by “and” are separate entries in the source; they are usually repeats but may differ in a detail not shown here. Identical values can stand only once. Like-named read-outs stand apart in the source and are kept apart here.

Regarding “IQGAP1 (native, from bovine adrenal) (natural protein)”, in assay [1], the percent of IQGAP1 able to bind F-actin (other experiments) is 85%. Also, in assay [2], the stoichiometry N (subunits per molecule) is 2.

Turning to “Calmodulin co-purifying with native IQGAP1 from bovine adrenal (from UniProt P62157 1-149) (natural protein)”, the stoichiometry N (mol calmodulin per mol 190K) is 0.05 in assay [3]; 0.067 and 0.042 and 0.026 in assay [4].

These data come from publication PMC2137827.
